From the supplement of paper PMC10567573

B1: TRIM29 (parent)
chain: RKCPVHGKTMELFCQTDQTCICYL
B2: NETO1 (parent)
chain: KTSLLDQLTNTSGTVIGVTSCIVI

Variants of: B1
Assay: protein stability index of a GFP-peptide fusion (GPS, HEK-293T) (PSI 1-6); higher = more stable
Conditions: c terminus: a fixed tail appended
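Note: lentivirally expressed fusions sorted by FACS into six bins by GFP to DsRed ratio, PSI derived from sequencing read proportions per bin multiplied by bin number.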

Protein stability index: each site, then its substitutions
D17: G 2.73; S 1.49; H 1.89; N 1.7; A 2.19; T 1.76; P 2.04; F 1.49; M 1.93; E 3.12; Q 1.66; C 2.08; L 3.97; Y 2.92; K 1.52; I 1.79; R 2.8
T16: I 1.98; Q 2.91; F 2.51; W 2.17; L 1.56; V 2.6; D 2.1; G 3.39; S 2.34; P 2.06; Y 2.54; H 2.44; E 1.78; C 3.37; R 1.91; K 2.15; N 2.62; A 2.24; M 1.57
C20: S 2.56; N 3.24; K 3.17; V 1.27; Q 3.07; A 3.08; H 3.04; M 3.2; P 1.83; L 2.28; R 2.38; D 3.16; W 2.42; I 1.25; G 3.31; Y 2.78
T19: E 2.4; I 3.16; A 3.62; S 2.63; H 2.95; C 2.66; W 2.47; M 2.51; Y 1.89; F 1.88; P 2.35; Q 2.32; N 2.16; G 2.42; K 2.44; L 1.59; D 1.6; V 1.31
Y23: F 1.65; K 4.52; R 3.95; L 2.58; C 4.73; E 5.25; A 4.28; Q 4.28; W 1.59; P 5.16; V 2.66; T 4.17; H 4.24; S 4.29; I 2.73; D 5.55; G 4.98; N 4.91; M 3.38
Q15: Y 1.92; L 3.21; I 1.88; C 3.22; D 1.52; E 1.56; P 2.66; S 2.48; V 2.75; H 2.26; M 2.43; A 2.75; T 2.14; F 3.06; G 2.93; K 1.79; R 1.78; N 2
Q18: S 1.68; R 1.97; G 2.79; T 2.36; K 3.94; C 2.22; L 2.11; E 2.75; Y 1.42; V 2.65; A 1.73; H 2.18; F 2.71; M 2.12; N 1.82; W 1.56; P 2.7; D 1.79
C22: S 2.46; A 1.87; H 2.01; E 2.58; F 1.31; Y 1.45; V 2.9; R 1.99; Q 2.02; G 1.99; M 2.37; D 2.38; L 3.09; T 2.16; N 1.67; P 2.27; K 2.04; I 2.81; W 1.23
I21: H 2.98; G 3.1; V 1.92; D 4.33; N 2.52; M 2.36; W 2.78; E 4.47; C 3.49; S 1.91; Y 3.25; L 1.73; F 2.86; A 2.77; K 2.02; P 2.44; T 3; Q 3.36; R 1.88
C14: S 2.35; V 1.47; W 1.89; R 2.5; T 3.06; Y 2.59
L24: E 4.75; D 5.58; Y 3.86; A 5.02; S 5.39; V 4.34; W 4.47; G 5.15; H 4.59; R 4.89; Q 5.07; N 4.57; T 5.36; F 4.64; P 5.26; C 4.74; I 4.21; M 4.34; K 4.82

Variants of: B2
Assay: as above
Conditions: c terminus: a fixed tail appended

Protein stability index: each site, then its substitutions
L4: K 2.57; E 2.94; D 2.7; R 2.34; A 2.65; I 4.14; N 2.6; V 3.28; Y 2.83; M 2.19; Q 3.64; G 4.07; T 3.56; P 2.67; W 3.2; C 2.08; S 1.85; F 2.99; H 3.14
K1: H 2.11; S 3; Q 2.81; F 3.08; N 2.53; M 3.4; G 2.6; W 3.48; E 3.07; L 2.67; R 1.61; I 2.82; Y 2.37; P 3.02
L8: W 3.83; G 2; A 2.76; Y 3.41; K 2.99; P 2.5; Q 3.09; I 3.38; T 3.48; S 3.3; N 2.56; E 2.35; D 3.02; M 2.83; R 3.04; H 3.66; V 3.52; F 2.71; C 3.29
L5: K 2.78; M 3.86; E 2.98; D 2.98; N 3.16; A 3.63; R 3.13; P 2.45; I 2.8; H 2.21; G 2.97; V 2.59; Y 2.3; C 2.32; W 3.45; F 2.32; Q 3.37; S 3.07
S3: C 3.27; M 3.37; D 2.46; Q 3.04; T 2.61; Y 3.56; P 2.58; K 2.88; I 3.45; V 2.39; E 2.86; H 2.43; R 3.26; A 3.59; N 2.57; F 2.59; W 2.56; L 2.17; G 1.92
T2: M 2.76; W 2.31; E 2.12; H 2.98; F 3.71; K 2.64; D 3.94; S 2.57; C 1.93; I 3.34; Q 2.94; L 2.58; G 3.08; N 2.4; A 3.1; V 2.68; P 3.5; Y 3.38; R 3.11
Q7: I 2.08; M 2.37; V 3.45; T 2.05; K 2.87; R 1.64; E 2.27; L 3.27; D 3.75; F 2.62; N 3.77; A 2.92; G 3.62; C 2.94; W 2.18; S 2.36; Y 2.47; H 4.35; P 2.88
D6: F 2.58; G 2.31; H 3.23; Q 2.18; W 3.03; S 2.52; L 2.92; C 4.27; Y 3.38; A 3.62; M 2.53; R 3.02; I 3.8; V 2.61; E 3.74; T 3.2; K 1.98; P 1.82; N 2.37
